Experiments:
[1] = biological target: Mis12C^M4 (human), Q9H081
[2] = biological target: Mis12C^M3 (human), Q9H081
Chain of Mis12C^M3 (human), Q9H081 (Q9H081 whole entry, chain 1 of 4): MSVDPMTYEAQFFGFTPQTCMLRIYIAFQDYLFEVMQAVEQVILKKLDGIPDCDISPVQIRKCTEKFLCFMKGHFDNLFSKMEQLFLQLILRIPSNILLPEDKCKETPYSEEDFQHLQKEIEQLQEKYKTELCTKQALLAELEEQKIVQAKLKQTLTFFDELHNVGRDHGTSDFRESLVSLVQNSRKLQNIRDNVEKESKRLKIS
Chain of Mis12C^M3 (human), Q9H081 (Q6P1K2 whole entry, chain 2 of 4, further chain): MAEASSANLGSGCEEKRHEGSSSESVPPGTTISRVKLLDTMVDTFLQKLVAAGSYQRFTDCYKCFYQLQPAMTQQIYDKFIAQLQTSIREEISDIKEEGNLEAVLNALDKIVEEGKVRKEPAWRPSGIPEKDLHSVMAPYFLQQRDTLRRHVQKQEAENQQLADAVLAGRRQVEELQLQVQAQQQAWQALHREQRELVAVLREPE
Chain of Mis12C^M3 (human), Q9H081 (Q96IY1 whole entry, chain 3 of 4, further chain): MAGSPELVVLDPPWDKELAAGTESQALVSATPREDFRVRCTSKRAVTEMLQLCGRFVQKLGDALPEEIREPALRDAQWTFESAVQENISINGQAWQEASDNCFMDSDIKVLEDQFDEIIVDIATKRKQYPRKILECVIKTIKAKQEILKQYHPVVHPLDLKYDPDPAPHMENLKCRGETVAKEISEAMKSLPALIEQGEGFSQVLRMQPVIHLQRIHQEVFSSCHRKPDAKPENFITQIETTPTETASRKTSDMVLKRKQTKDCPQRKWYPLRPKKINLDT
Chain of Mis12C^M3 (human), Q9H081 (Q9H410 whole entry, chain 4 of 4, further chain): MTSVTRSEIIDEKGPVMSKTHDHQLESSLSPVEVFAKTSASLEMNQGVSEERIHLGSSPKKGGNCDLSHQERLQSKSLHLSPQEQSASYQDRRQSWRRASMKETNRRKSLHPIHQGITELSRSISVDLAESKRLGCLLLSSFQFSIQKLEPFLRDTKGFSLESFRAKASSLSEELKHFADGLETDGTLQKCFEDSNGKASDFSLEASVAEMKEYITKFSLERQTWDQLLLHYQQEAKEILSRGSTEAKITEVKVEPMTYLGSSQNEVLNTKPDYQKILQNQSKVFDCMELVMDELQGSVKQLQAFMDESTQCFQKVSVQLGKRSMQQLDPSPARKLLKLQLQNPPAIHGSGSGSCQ

Chain of Mis12C^M4 (human), Q9H081 (Q9H081 whole entry, chain 1 of 4): as the sequence (Q9H081 whole entry, chain 1 of 4) above
Chain of Mis12C^M4 (human), Q9H081 (Q6P1K2 whole entry, chain 2 of 4, further chain): as the sequence (Q6P1K2 whole entry, chain 2 of 4, further chain) above
Chain of Mis12C^M4 (human), Q9H081 (Q96IY1 whole entry, chain 3 of 4, further chain): as the sequence (Q96IY1 whole entry, chain 3 of 4, further chain) above
Chain of Mis12C^M4 (human), Q9H081 (Q9H410 whole entry, chain 4 of 4, further chain): as the sequence (Q9H410 whole entry, chain 4 of 4, further chain) above

B1: Ndc80 complex (Ndc80C): NDC80^HEC1, NUF2, SPC24, SPC25, O14777 1-642; Q9BZD4 1-464; Q8NBT2 1-197; Q9HBM1 1-224 (complex)
chain 1: MKRSSVSSGGAGRLSMQELRSQDVNKQGLYTPQTKEKPTFGKLSINKPTSERKVSLFGKRTSGHGSRNSQLGIFSSSEKIKDPRPLNDKAFIQQCIRQLCEFLTENGYAHNVSMKSLQAPSVKDFLKIFTFLYGFLCPSYELPDTKFEEEVPRIFKDLGYPFALSKSSMYTVGAPHTWPHIVAALVWLIDCIKIHTAMKESSPLFDDGQPWGEETEDGIMHNKLFLDYTIKCYESFMSGADSFDEMNAELQSKLKDLFNVDAFKLESLEAKNRALNEQIARLEQEREKEPNRLESLRKLKASLQGDVQKYQAYMSNLESHSAILDQKLNGLNEEIARVELECETIKQENTRLQNIIDNQKYSVADIERINHERNELQQTINKLTKDLEAEQQKLWNEELKYARGKEAIETQLAEYHKLARKLKLIPKGAENSKGYDFEIKFNPEAGANCLVKYRAQVYVPLKELLNETEEEINKALNKKMGLEDTLEQLNAMITESKRSVRTLKEEVQKLDDLYQQKIKEAEEEDEKCASELESLEKHKHLLESTVNQGLSEAMNELDAVQREYQLVVQTTTEERRKVGNNLQRLLEMVATHVGSVEKHLEEQIAKVDREYEECMSEDLSENIKEIRDKYEKKATLIKSSEE
chain 2: METLSFPRYNVAEIVIHIRNKILTGADGKNLTKNDLYPNPKPEVLHMIYMRALQIVYGIRLEHFYMMPVNSEVMYPHLMEGFLPFSNLVTHLDSFLPICRVNDFETADILCPKAKRTSRFLSGIINFIHFREACRETYMEFLWQYKSSADKMQQLNAAHQEALMKLERLDSVPVEEQEEFKQLSDGIQELQQSLNQDFHQKTIVLQEGNSQKKSNISEKTKRLNELKLSVVSLKEIQESLKTKIVDSPEKLKNYKEKMKDTVQKLKNARQEVVEKYEIYGDSVDCLPSCQLEVQLYQKKIQDLSDNREKLASILKESLNLEDQIESDESELKKLKTEENSFKRLMIVKKEKLATAQFKINKKHEDVKQYKRTVIEDCNKVQEKRGAVYERVTTINQEIQKIKLGIQQLKDAAEREKLKSQEIFLNLKTALEKYHDGIEKAAEDSYAKIDEKTAELKRKMFKMST
chain 3: MAAFRDIEEVSQGLLSLLGANRAEAQQRRLLGRHEQVVERLLETQDGAEKQLREILTMEKEVAQSLLNAKEQVHQGGVELQQLEAGLQEAGEEDTRLKASLLQLTRELEELKEIEADLERQEKEVDEDTTVTIPSAVYVAQLYHQVSKIEWDYECEPGMVKGIHHGPSVAQPIHLDSTQLSRKFISDYLWSLVDTEW
chain 4: MVEDELALFDKSINEFWNKFKSTDTSCQMAGLRDTYKDSIKAFAEKLSVKLKEEERMVEMFLEYQNQISRQNKLIQEKKDNLLKLIAEVKGKKQELEVLTANIQDLKEEYSRKKETISTANKANAERLKRLQKSADLYKDRLGLEIRKIYGEKLQFIFTNIDPKNPESPFMFSLHLNEARDYEVSDSAPHLEGLAEFQENVRKTNNFSAFLANVRKAFTATVYN
With B1 the kinetochore levels of endogenous Ndc80C (NDC80^HEC1 immunofluorescence) in HeLa cells depleted of endogenous Mis12C and electroporated with the mutant Mis12C [1] was 50 % reduction and the kinetochore levels of endogenous Ndc80C (NDC80^HEC1 immunofluorescence) in HeLa cells depleted of endogenous Mis12C and electroporated with the mutant Mis12C [2] was 50 % reduction.
